Test results taken from the supplement of paper PMC10126150.
± gives the standard deviation of the averaged measurements.

Test system: ATP
Assay: switch fluorescence ratio, 500 uM ATP over buffer (Cy3 cluster intensity, sum of 5 cycles each) (fold (ratio)); higher = stronger signal-on switching upon ATP binding; sequences stand for … in TCGTCGGCAGCGTCAGATGTGTATAAGAGACAGTTTTTTTTTTTTTTTTTTTTTTTTT…TC
Settings: aptamer strand: ATP DNA aptamer (quencher-CACCTGGGGGAGTATTGCGGAGGAAGG + anchor), 100 nM annealed; ATP concentration: 500 uM
Method in brief: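 Values give the fluorescence ratio for each switch-domain sequence, averaged from per-cluster ratios of summed target-cycle to summed buffer-cycle Cy3 intensity. The Cy3-labelled switching-strand clusters sat on a modified Illumina MiSeq flow-cell, were annealed to 100 nM quencher-labelled ATP aptamer, and were imaged in selection buffer, then after 15 min with 500 uM ATP at 22 °C. Five cycles ran with NaOH stripping and re-annealing between them, and clusters outside 100-1000 RFU were excluded.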
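Also: ATP exposure 15 min at 22 °C before imaging.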

Sequence | switch fluorescence ratio
AGGTTAGGCT | 0.989 ± 0.014
AGGTTCACCC | 1.07 ± 0.08
AGGTTCGGAT | 0.985 ± 0.056
AGGTTCTCTG | 0.9942 ± 0.0011
AGGTTGAGCT | 0.9791 ± 0.0021
AGGTTGAGG | 1.01 ± 0.021
AGGTTGCGCG | 1.009 ± 0.0079
AGGTTGGATT | 0.9706 ± 0.0039
AGGTTGGCGT | 0.995 ± 0.029
AGGTTGGGAA | 0.944 ± 0.07
AGGTTGGGGG | 0.981 ± 0.013
AGGTTGGTCG | 0.974 ± 0.064
AGGTTGTGAC | 0.989 ± 0.029
AGGTTGTTTG | 1.01 ± 0.031
AGGTTTGGAT | 0.991 ± 0.078
AGGTTTTCTC | 1.02 ± 0.052
AGGTTTTTTA | 1.02 ± 0.022
AGTAAAAAAA | 0.987 ± 0.033
AGTAAAGCAG | 1 ± 0.055
AGTAAAGTTC | 1.03 ± 0.028
AGTAACAGTA | 1 ± 0.037
AGTAACATTT | 0.974 ± 0.069
AGTAACTAGA | 1.01 ± 0.046
AGTAAGAGTC | 1.01 ± 0.017
AGTAAGATGT | 0.976 ± 0.034

Sequence | switch fluorescence ratio
AGTAAGCGGC | 1.004 ± 0.0094
AGTAATTTTA | 1.04 ± 0.04
AGTACACGTG | 0.993 ± 0.026
AGTACATAGT | 0.99 ± 0.024
AGTACATGAT | 1.02 ± 0.025
AGTACCGGGT | 1.04 ± 0.049
AGTACGGGGG | 0.992 ± 0.021
AGTAGAAATG | 0.991 ± 0.012
AGTAGAATTG | 0.966 ± 0.054
AGTAGAGATG | 1.03 ± 0.028
AGTAGAGTTT | 0.987 ± 0.013
AGTAGCAAGC | 3.3 ± 0.17
AGTAGCAGCT | 1.03 ± 0.048
AGTAGCGATT | 1.06 ± 0.031
AGTAGGCGAG | 0.996 ± 0.042
AGTAGGGGAA | 0.995 ± 0.035
AGTAGGGTTG | 0.957 ± 0.011
AGTAGGTAAA | 1.03 ± 0.023
AGTAGGTAGG | 0.981 ± 0.03
AGTAGGTAGT | 0.968 ± 0.019
AGTAGGTCGG | 0.987 ± 0.01
AGTAGTAAGC | 1.03 ± 0.023
AGTAGTAAGT | 1.01 ± 0.012
AGTAGTTGGG | 0.967 ± 0.037
AGTATAAAAA | 1.03 ± 0.062

Sequence | switch fluorescence ratio
AGTATAGGGA | 1.011 ± 0.01
AGTATCTGGG | 0.9886 ± 0.0094
AGTATGGAGC | 0.9983 ± 0.004
AGTATGGGGA | 0.989 ± 0.016
AGTATGGGGG | 1.02 ± 0.015
AGTATGGTGG | 0.998 ± 0.013
AGTATGTGCT | 0.965 ± 0.024
AGTATGTGTC | 1.01 ± 0.042
AGTATTCTG | 0.961 ± 0.04
AGTATTGGGT | 0.998 ± 0.035
AGTATTTCGT | 0.987 ± 0.031
AGTATTTTTA | 1.01 ± 0.012
AGTATTTTTG | 1.01 ± 0.032
AGTCCGATTT | 1.03 ± 0.061
AGTCCTTAGC | 1 ± 0.071
AGTCGGGGGC | 1.03 ± 0.04
AGTCGGGGGT | 0.99 ± 0.024
AGTCGGGTCT | 1.05 ± 0.083
AGTCGTTCAG | 0.949 ± 0.023
AGTCTAGTGG | 0.985 ± 0.027
AGTCTCTCAT | 0.992 ± 0.03
AGTCTGCTGT | 0.984 ± 0.037
AGTGACATCG | 1.14 ± 0.076
AGTGAGAGGA | 0.9804 ± 0.007
AGTGAGAT | 0.9943 ± 0.0097

Sequence | switch fluorescence ratio
AGTGAGGGTA | 0.983 ± 0.031
AGTGAGGTTG | 0.977 ± 0.049
AGTGATGGGG | 0.987 ± 0.037
AGTGCAGGCA | 1 ± 0.034
AGTGCATTTT | 1.06 ± 0.097
AGTGCCATTG | 0.9627 ± 0.0067
AGTGCGGGTT | 1.02 ± 0.025
AGTGGAAAC | 1.0032 ± 0.00099
AGTGGAGGAC | 1.02 ± 0.012
AGTGGCAAGG | 0.9943 ± 0.0063
AGTGGCACGG | 1 ± 0.029
AGTGGCTTTG | 0.986 ± 0.019
AGTGGGAAAT | 0.994 ± 0.015
AGTGGGAACA | 1.01 ± 0.017
AGTGGGAATC | 0.989 ± 0.032
AGTGGGAGGA | 0.996 ± 0.02
AGTGGGATGG | 1.03 ± 0.037
AGTGGGATTT | 0.993 ± 0.039
AGTGGGGAAT | 1.01 ± 0.049
AGTGGGGACG | 1.031 ± 0.01
AGTGGGGATC | 1.03 ± 0.035
AGTGGGGGAT | 0.988 ± 0.028
AGTGGGGGTC | 1.02 ± 0.021
AGTGGGTAGA | 1.04 ± 0.049
AGTGGGTTAG | 1.016 ± 0.0012

Sequence | switch fluorescence ratio
AGTGGTACTA | 0.991 ± 0.038
AGTGGTGGAG | 1 ± 0.04
AGTGGTGGTA | 0.998 ± 0.018
AGTGGTTATT | 0.989 ± 0.032
AGTGTAATGT | 0.975 ± 0.059
AGTGTATCCC | 1.01 ± 0.034
AGTGTCGTGC | 1 ± 0.025
AGTGTCGTTT | 0.991 ± 0.02
AGTGTCTTTG | 0.954 ± 0.011
AGTGTGGGCG | 1.04 ± 0.02
AGTGTGGGGG | 1.01 ± 0.029
AGTGTGGTGC | 0.9778 ± 0.0073
AGTGTTACG | 1.01 ± 0.04
AGTGTTATTT | 0.993 ± 0.011
AGTGTTCGCT | 0.9732 ± 0.0052
AGTGTTCTCG | 0.983 ± 0.017
AGTGTTGATG | 0.975 ± 0.051
AGTGTTGCGG | 0.952 ± 0.021
AGTGTTGGCC | 1.023 ± 0.0089
AGTGTTGGG | 0.9768 ± 0.0046
AGTGTTGTCA | 0.97 ± 0.043
AGTGTTGTGC | 1.01 ± 0.033
AGTGTTGTTG | 0.9727 ± 0.0095
AGTGTTTAAA | 0.969 ± 0.025
AGTGTTTCAG | 0.956 ± 0.018

Sequence | switch fluorescence ratio
AGTGTTTGCC | 1.036 ± 0.0035
AGTGTTTGGC | 1.01 ± 0.022
AGTGTTTTAA | 0.994 ± 0.033
AGTTAAAGTG | 1.03 ± 0.057
AGTTAATGCT | 0.9856 ± 0.0026
AGTTAGACTT | 1.02 ± 0.064
AGTTAGAGTG | 0.976 ± 0.016
AGTTAGGAAG | 0.973 ± 0.011
AGTTAGGGGC | 0.995 ± 0.053
AGTTATCGAA | 1.009 ± 0.0036
AGTTATTAAT | 1.06 ± 0.054
AGTTATTGAG | 0.9991 ± 0.0043
AGTTATTGCC | 1.01 ± 0.029
AGTTATTTTT | 0.991 ± 0.011
AGTTCCGTTG | 1.028 ± 0.0097
AGTTCGGCGT | 0.999 ± 0.029
AGTTCGGTGC | 0.9799 ± 0.0012
AGTTCGTTA | 0.9861 ± 0.0056
AGTTGAAGGG | 0.973 ± 0.018
AGTTGAATTG | 0.994 ± 0.022
AGTTGAGATG | 0.971 ± 0.033
AGTTGAGGAA | 1 ± 0.026
AGTTGATGGG | 0.978 ± 0.049
AGTTGCCCGG | 1.006 ± 0.0068
AGTTGCGTCG | 0.997 ± 0.031

Sequence | switch fluorescence ratio
AGTTGCTGCT | 0.995 ± 0.02
AGTTGCTTGG | 1.01 ± 0.041
AGTTGGAATT | 0.979 ± 0.012
AGTTGGACAG | 1.02 ± 0.012
AGTTGGAGGC | 0.9476 ± 0.0088
AGTTGGATC | 1.02 ± 0.015
AGTTGGCGGC | 1.02 ± 0.039
AGTTGGCTTG | 1.03 ± 0.03
AGTTGGGGTA | 1 ± 0.013
AGTTGGGGTT | 1.035 ± 0.0033
AGTTGGGTCG | 1.004 ± 0.0056
AGTTGGTGG | 1.02 ± 0.024
AGTTGGTTAC | 1.01 ± 0.023
AGTTGGTTAT | 0.974 ± 0.022
AGTTGTAAGG | 0.962 ± 0.014
AGTTGTACAA | 1.012 ± 0.01
AGTTGTGGGC | 0.968 ± 0.018
AGTTGTGTAT | 1.01 ± 0.051
AGTTGTTAGT | 0.969 ± 0.021
AGTTGTTTGG | 1 ± 0.025
AGTTTAGGGG | 0.9796 ± 0.0016
AGTTTAGTGA | 0.996 ± 0.044
AGTTTATAGA | 1.01 ± 0.023
AGTTTATGCA | 1 ± 0.017
AGTTTATGCG | 0.979 ± 0.021

Sequence | switch fluorescence ratio
AGTTTATTC | 1.01 ± 0.061
AGTTTCCTGC | 1.01 ± 0.015
AGTTTCGCTC | 0.987 ± 0.063
AGTTTCGGCG | 1 ± 0.02
AGTTTCTAGT | 0.97 ± 0.043
AGTTTGATGG | 0.99 ± 0.087
AGTTTGCGGC | 0.94 ± 0.039
AGTTTGGGAA | 1 ± 0.018
AGTTTGGGTA | 0.9959 ± 0.008
AGTTTGGGTC | 0.984 ± 0.057
AGTTTGGTGC | 1.05 ± 0.027
AGTTTGTTCG | 0.953 ± 0.022
AGTTTTACAG | 1.01 ± 0.02
AGTTTTGCTC | 0.981 ± 0.012
AGTTTTTATA | 1.002 ± 0.0012
AGTTTTTGTC | 0.953 ± 0.048
AGTTTTTTTC | 1.02 ± 0.023
ATAAAAAAGG | 1.01 ± 0.017
ATAAAAACAT | 1 ± 0.027
ATAAAACATG | 0.9785 ± 0.0055
ATAAAATAAA | 0.976 ± 0.031
ATAAACCGGG | 1.02 ± 0.043
ATAAAGACTT | 0.9755 ± 0.0058
ATAAAGCAGT | 1.02 ± 0.048
ATAAAGCTTA | 1 ± 0.03
